The supplement of paper PMC9170038

Test system: MS2 coat protein
Assay: apparent KD of MS2 coat protein; higher = weaker reporter binding
Conditions: Eterna round: R107
In short: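 Apparent KD per design is the median of normalised cluster binding-curve fits. Designed RNA switches transcribed on-chip from Illumina sequencing clusters were titrated with SNAP-549-labelled MS2 coat protein in twofold steps from 0.7 or 1.5 nM to 3 µM, with 0.8–1.5 h down to 10–20 min per step. Buffer: 100 mM Tris-HCl pH 7.5, 80 mM KCl, 4 mM MgCl2, without or with constant ligand.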

[1] = input ligand: theophylline 20 uM
[2] = input ligand: tryptophan 2.4 mM
[3] = input ligand: theophylline 2 mM

| Sequence | apparent KD of MS2 coat protein (input ligand: arginine 13.2 mM) [nM] | apparent KD of MS2 coat protein [1] [nM] | apparent KD of MS2 coat protein [2] [nM] | apparent KD of MS2 coat protein (input ligand: none) [nM] | apparent KD of MS2 coat protein [3] [nM] |
| --- | --- | --- | --- | --- | --- |
| UACAGUACAACAGAUACCAGACAGUACUCUAGAUUGCAACAUGAGGAUCACCCAUGUAUAGUCCCUUGGCAGCUGUAAUGGGUGA [Theo B SS s1] | 142 | 195 | 77.2 | – | – |
| AAUCAUAACUGAAGGAGCGUCUAUAUUACAUGAGGAUCACCCAUGUUUAUAUGGUAUUAUAGACAGGUAGGUCGCAGAUUUUUUA [JR_SSArginiB_Sub017] | 20.7 | 21.6 | 15.8 | 16.8 | 18.7 |
| AGCCACUCGAGUGAUCCUCACGAGUGGCUACGAGGACCGGUACGGCCGCCACUCGAAUUAACAUGAGGAUCACCCAUGUAAUCAU [Brourdmod04] | 97.8 | 259 | – | – | 317 |
| AAUAAUAGGUGAUCUUGUGUCGUACCGUAACGAGGACCGGUACGGCCGCCACUCGAACAUGAGGAUCACCCAUGUAUGUAUGAUA [whbob_SS_trypto A_f7] | 57.8 | 301 | – | – | 497 |
| AGGUGACAUGAGGAUCACCCAUGUGGCUUACGAGGACCGGUACGGCCGCCACUCGGUGUGACCUCCGCAUUCACAUAAUAAUCUU [Rilala] | 37.4 | 131 | – | – | 126 |
| UUGUUGUUUGGAAGGAGCGUGUAUGAUUAAGAACAUGAGGAUCACCCAUGUUGUAGGGUAGCACAGGUAGGUCGCCGGGUGGUGG [11.V] | 34.8 | 36.8 | 21.1 | 25.1 | 31.2 |
| GGAAGGACAGUUGAUACCAGUUUCAAAGGCGGUAAUCACUACAUGAGGAUCACCCAUGUCAACCCUUGGCAGCAAUAGACCGUGG [theeternabot_exclusion_MS2_Theo_B_6] | 24 | 28.1 | 19.2 | – | – |
| AUCGGCAGAAAAGAUACCAGAGUAAUACACAACAUGAGGAUCACCCAUGUACGGACAAUCCUCCCUUGGCAGCUUGUAACAGUAU [theeternabot_sameState_MS2_Theo_B_32] | 37.4 | 63.8 | 48 | – | – |
| ACAUGAGGAUCACCCAUGUAGCCUAGGGAAGGAGCGUCGUAAGAGACAGGUAGGUCGCCCGCAUGUGGAUCACCCAUGUCGAGGG [SSArg A #11] | 27.4 | 48.3 | 38.7 | 37.5 | 43.6 |
| UACAUGAGGAUCACCCAUGUAUUGCCGGUACGAGGACCGGUACGGCCGCCACUCGGAGCAUGAGGAUCACCCAUGUGCUGCUAUG [Same State Trypophan A GF 24] | 35.5 | 67.1 | – | – | 83.7 |
| ACAUGAGGGAUGGAUACCAGCGACAUGAGGAUCACCCAUGUAUGAGGAUCACCCAUGUUAUGCCCUUGGCAGCCACAAACAUGAG [UUYMULLIN] | 24.8 | 20 | 16.9 | 14.3 | 117 |
| AGGACAUGAGGAUCACCCAUGUACACUGAAGGAGCGUCGAGAACGACAGGUAGGUCGCAGGCUAAGGAAGGUGAUGCUCAAGAAG [Exclusion Arginine A GF6] | 28.2 | 40.9 | 27.1 | 26.2 | 29.8 |
| AUACAUGAGGAUCACCCAUGUUAUAGUGAAGGAGCGACAUUUAUGUCAGGUAGGUCGCACUGUUGUUUAAUGAUUCUUGGAUCUU [#20 Exclusion - Arginine A] | 16 | 18.9 | 15.1 | 13.3 | 14.1 |
| AAGACGGUCGGAAGGAGCGGUACAUGAGGAUCACCCAUGUACCUCUGGGCAUCCGUAGUGUGCCAGGUAGGUCGCCGAUUGCGGG [Esorbevege] | 12.7 | 23.3 | 12.1 | 11.7 | 13.5 |
| GGGUACAUCGCGGCCGCCACUCGUGUAAAUACAUGAGGAUCACCCAUGUCGAUGGAGACAUCGGCGAGGACCGGGUGAUGUACCG | 43.1 | 54.2 | 11.5 | 47.5 | 53.5 |
| AGUGUUAUAACUGAUACCAGACUUUUGCUUAUACAUGAGGAUCACCCAUGUAAAAUGGUUGUCCCUUGGCAGCAGAAAAUACACA [JR_SSTheophyB_Sub007] | 81.6 | 104 | 134 | – | – |
| GGAUCAGGAUCGGCCGCCACUGAUAGUGAUCCAACGACAUGAGGAUCACCCAUGUACAUUUUAAUCAGGACCGGGAUCAAGUUCC [Tryp B Ex t7] | 40 | 189 | – | – | 327 |
| UUAUUUAUAAUGGAUACCAGUAUAAUGGCCGCAAAUCCUGACAUGAGGAUCACCCAUGUAUGCCCUUGGCAGCUGUUAUGGGUUU [XTheo B #23] | 34.7 | 51.2 | 38.7 | – | – |
| UAUAUAUAUAUGGAUACCAGCAGAGAAAACGUUUAUCCUAACAUGAGGAUCACCCAUGUAUGCCCUUGGCAGCUGUGUAUAUAUA [8.H] | 16.7 | 26.5 | 19.2 | – | – |

| Sequence | apparent KD of MS2 coat protein (input ligand: arginine 13.2 mM) [nM] | apparent KD of MS2 coat protein [1] [nM] | apparent KD of MS2 coat protein [2] [nM] | apparent KD of MS2 coat protein (input ligand: none) [nM] | apparent KD of MS2 coat protein [3] [nM] |
| --- | --- | --- | --- | --- | --- |
| GGACUAACCAGAAGGAGCGACGCGCAGAAACUGCAAAUUCCUCCACACGAGGAUCACCCGUGUCAGGUAGGUCGCUGGUUAGUCG | 16.5 | 23 | 18.2 | 16.6 | 16.1 |
| CCUCAUGUGGUGCUGCACAUGAGAGGUGAUACCAGCAUCGAAAGAUGCCCUUGGCAGCACCAACAUGAGGAUCACCCAUGUAAUA [(M)'-(T)'-(M)''-(T1)-(T2)-(M1)-(M2)_Design1] | 27 | 94 | 25 | – | – |
| AAGGUGAUCCCAGAUACCAGCUCAACAUGAGGAUCACCCAUGUACGGGACGAAAGUCCCGGGCCCUUGGCAGCUGGGUUGCCAAG [SSTheo B #19] | 42.2 | 299 | 185 | – | – |
| ACAUGAGGAUCACCCAUGUGUGUAAAUCCUCGAGGACCGGUACGGCCGCCACUCGAUCGAGUGUAAGUUGAAUGUAACAUUCAAC [whbob_SS_trypto A_2s8] | 42.6 | 118 | – | – | 108 |
| GCGGUCGGAGUGCGGCGUGUUCCGCUCCGUCGAGGACCGGUACGGCCGCCACUCGACAUGAGGAUCACCCAUGUCCGACCGCGCG [#1 Exclusion - Tryptophan A Attempt #5 (HarryS)] | 18.4 | 66.5 | 6.86 | 13.4 | 28.8 |
| CACAUGAGGAUCACCCAUGUCUGAACUGAAGGAGCGCUAAAUAAGGCAGGUAGGUCGCGGAAUCGUGUGUGCAUAUGCACACGCG [9.U] | 17.8 | 35.7 | 18 | 24 | 25.3 |
| UUUUACAUGAGGAUCACCCAUGUACAUGGGCGAGGACCGGUACGGCCGCCACUCGUGGGACCCACGGGCCCGCUUAGUGGGUACA [LarryB_001] | 58.3 | 168 | 57.4 | 87.5 | 189 |
| UCGCACAUGAGGAUCACCCAUGUACUAGAUACCAGUGACGCGGUGCACCCUUGGCAGCUGGUGCUGAGUGAUGGUUCCCUCGGCA [Exclusion Theophylline A GF8] | 53.5 | 137 | 112 | – | – |
| UGCGUACAUGAGGAUCACCCAUGUACUGAAGGAGCGGGAGGCAUCUCAGGUAGGUCGCAGACAUGAGGAUCACCCAUGUAGUGGU [Exclusion Arginine A GF 18] | 16.1 | 44.6 | 26.6 | 26.9 | 38.3 |
| UUUGAGAUAACAGAUACCAGCGUGUUAUAAAACAUGAGGAUCACCCAUGUAGUGAUCAAGCGCCCUUGGCAGCUGGUGUUUUAGG [7.H] | 21.1 | 383 | 141 | 102 | 469 |
| ACAUGAGGAUCACCCAUGUAAUUGCCGGAAGGAGCGUCAUUAAGGACAGGUAGGUCGCUGGUAGGGUCGUCGGUUACGGCGGCCA [SSArg A #10] | 13.3 | 16.8 | 13.7 | 11.1 | 13 |
| UCACAUGAGGAUCACCCAUGUAAAGUUGAAGGAGCGAUCAUUAGGUCAGGUAGGUCGCAACACAUGAGGAUCACCCAUGUUGUCC [DOUBLE!!! :-D] | 25.7 | 49.9 | 38.3 | 40.8 | 47.1 |
| UAGGUGAUCUUCAACGGAAAACGUUGUGAUACCAGCCAACAAUACGGCCCUUGGCAGCACAUGAGGAUCACCCAUGUGUACACCG [Vetizaatdi] | 25.6 | 48.7 | 30.6 | – | – |
| ACAUGAGGAUCACCCAUGUUCCUCGCCGAUACCAGUGAAGAAGAACGCCCUUGGCAGCGGAAAGAAUAUUUUGGAGAUGAGAUAU [6.V] | 70.5 | 272 | 220 | – | – |
| UUUUUUAACUGAAGGAGCGUCACAUGAGGAUCACCCAUGUAUUAGAUGAGAAGGAUCUUGUGGCAGGUAGGUCGCAGAGGAAGGG [e-argB-V] | 99.6 | 187 | 136 | 389 | 181 |
| AGUUACUCGAACAUGGUUGACGAGUGGCAACGAGGACCGGUACGGCCGCCACUCGAAUAAACAUGAGGAUCACCCAUGUACAAAU [T''-M'-T'-T-MS2 - Design 10.b] | 61.9 | 148 | – | – | 160 |
| AGACAUGAGGAUCACCCAUGUGAAGUGGAUACCAGCCGCAGCGAUGGCCCUUGGCAGCCAGCUUUGUGUCGAUACAUCCGCACUU [theeternabot_exclusion_MS2_Theo_A_2] | 16.9 | 22.9 | 18.1 | – | – |
| AACCACAUGAGGAUCACCCAUGUGACCGCUCGAGGACCGGUACGGCCGCCACUCGUGGAGGGACUUAUGCGUUAUCCGGGUAAAU [theeternabot_sameState_MS2_Trp_A_29] | 16.9 | 27 | – | – | 20.9 |
| UAUAAAAUAACAGAUACCAGCGUGUUAUAAAACAUGAGGAUCACCCAUGUAGUGAUCAAGCGCCCUUGGCAGCUGGUAUUUUAUG [7.C] | 92.3 | 166 | 58.1 | – | – |
